Source: paper PMC6546417 (Science (New York, N.Y.), 2009)
Where “and” joins values, the source holds several entries; their conditions need not be identical. Equal values may be shown once.

T1: Dnm1K41A (yeast, UniProt P54861 1-757, K41A)
T1 sequence (looked up): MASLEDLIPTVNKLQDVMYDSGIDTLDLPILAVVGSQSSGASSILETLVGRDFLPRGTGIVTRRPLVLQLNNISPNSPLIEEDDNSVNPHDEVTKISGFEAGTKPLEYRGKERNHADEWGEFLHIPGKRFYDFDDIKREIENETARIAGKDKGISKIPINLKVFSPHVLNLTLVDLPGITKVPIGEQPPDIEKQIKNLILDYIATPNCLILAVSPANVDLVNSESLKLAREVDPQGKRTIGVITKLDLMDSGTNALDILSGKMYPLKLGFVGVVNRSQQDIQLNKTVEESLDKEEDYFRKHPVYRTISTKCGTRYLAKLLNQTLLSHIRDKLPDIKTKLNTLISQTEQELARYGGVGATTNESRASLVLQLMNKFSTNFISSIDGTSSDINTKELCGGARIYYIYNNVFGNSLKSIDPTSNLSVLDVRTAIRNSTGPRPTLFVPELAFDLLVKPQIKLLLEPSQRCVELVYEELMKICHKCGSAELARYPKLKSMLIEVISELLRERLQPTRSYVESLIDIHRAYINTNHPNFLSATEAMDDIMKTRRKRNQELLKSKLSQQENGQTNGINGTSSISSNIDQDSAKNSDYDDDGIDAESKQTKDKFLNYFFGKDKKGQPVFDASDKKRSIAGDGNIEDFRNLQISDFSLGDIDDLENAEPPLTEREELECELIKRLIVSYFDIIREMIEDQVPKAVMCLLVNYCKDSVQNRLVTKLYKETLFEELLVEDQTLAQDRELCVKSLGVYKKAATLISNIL

B1: Dnm1 (enzyme, yeast, UniProt P54861 1-757, looked up)
chain: MASLEDLIPTVNKLQDVMYDSGIDTLDLPILAVVGSQSSGKSSILETLVGRDFLPRGTGIVTRRPLVLQLNNISPNSPLIEEDDNSVNPHDEVTKISGFEAGTKPLEYRGKERNHADEWGEFLHIPGKRFYDFDDIKREIENETARIAGKDKGISKIPINLKVFSPHVLNLTLVDLPGITKVPIGEQPPDIEKQIKNLILDYIATPNCLILAVSPANVDLVNSESLKLAREVDPQGKRTIGVITKLDLMDSGTNALDILSGKMYPLKLGFVGVVNRSQQDIQLNKTVEESLDKEEDYFRKHPVYRTISTKCGTRYLAKLLNQTLLSHIRDKLPDIKTKLNTLISQTEQELARYGGVGATTNESRASLVLQLMNKFSTNFISSIDGTSSDINTKELCGGARIYYIYNNVFGNSLKSIDPTSNLSVLDVRTAIRNSTGPRPTLFVPELAFDLLVKPQIKLLLEPSQRCVELVYEELMKICHKCGSAELARYPKLKSMLIEVISELLRERLQPTRSYVESLIDIHRAYINTNHPNFLSATEAMDDIMKTRRKRNQELLKSKLSQQENGQTNGINGTSSISSNIDQDSAKNSDYDDDGIDAESKQTKDKFLNYFFGKDKKGQPVFDASDKKRSIAGDGNIEDFRNLQISDFSLGDIDDLENAEPPLTEREELECELIKRLIVSYFDIIREMIEDQVPKAVMCLLVNYCKDSVQNRLVTKLYKETLFEELLVEDQTLAQDRELCVKSLGVYKKAATLISNIL

Assays:
Dnm1 = molecular target: B1; assay: cell-based or functional assay
Dnm1K41A = molecular target: T1, Dnm1K41A; assay: liposome flotation
cross-linking = molecular target: the molecule itself; assay: cross-linking
[1] = molecular target: the molecule itself; assay: SEC + other: sucrose gradient sedimentation
[2] = molecular target: the molecule itself; assay: negative-stain electron microscopy

Row | Binder | amount of GTP cross-linked to Dnm1 by ultraviolet light on addition of Mdv1 (Dnm1) [fold] | binding result (Dnm1K41A) | stoichiometry N (cross-linking) | stoichiometry N [1] | binding result [2]
1 | Mdv1 (natural protein, yeast, UniProt P47025 1-714, looked up) MSVNDQITHIGKTLSTTASAFLNYQKSNSNTQDVLTNNGPYKNLLSNTVNNASSTSYFYKRTEHGRFVKNASNTFEDIYSKTRRGDVFRNKFTDNKTCFRMLTYISDDLLNEIPTKEGLKSDADGKLLTEGGENENLRKNASKKETSLFQGFKSYLPIAELAIENTERLNYDTNGTSGTVGAKDVMSKTNERDEIHTELPNFQDSFLIPPGVETKKISSSYSPSALKSFSQTLVNSLEFLNIQKNSTLSEIRDIEVEVENLRQKKEKLLGKIANIEQNQLLLEDNLKQIDDRLDFLEEYGLEVIEANSDENAEDDGMSERKALKNDAIRNEGVTTESISSEASNLPPRRRQQLRDDNSLNRLGAFYSKSKKRHRKSFPTFQQLYEPGTKIGSIMSTHDDFLTCLDFDAPFGTLCTAGYLDHTVKIWDLSKQNKIGELAGHLATINCMQINRDYGTLVTGGRDAALKLWNLNLAQQLYQETQNLTSPTNHIDSPCVHTFEAHTDEVTALSLDPSFLVSGSQDRTIRQWDLRSGKCLQTIDLSFANVLTTSTNVDLSKSTLLTQRNERPSIGALQSFDAALATGTKDGVVRLWDLRSGKVIRTLKGHTDAITSLKFDSACLVTGSYDRTVRIWDLRTGLLNKFHAYSAPVLSLDLFQENAAVVVADEPSVQIYDSEKDESWSCVEQGNETSVSTVKYKENYMVEGRENGDVNIWAV | 1.4 | binds | 4 and 6 | 2 | –
2 | B1 | – | – | – | – | binds
